Measurements: publication PMC12846707

Tests used:
[1] = target: Recombinant C4b α chain (pig); experiment: SPR; Biacore 8K, single-cycle; C4bα and C4bβ covalently immobilised on CM5 chip (about 1500 RU); CR1-like fragments or mutant as mobile phase, 1.56 × 10^-2 to 4 μM; 25 °C; 10 mM HEPES pH 7.4, 150 mM NaCl, 0.05% Tween-20; apparent KD = kd/ka
[2] = target: Recombinant C4b β chain (pig); experiment: as above

Question: “118I mutant of CR1-like CCPs 1-3 (domain or fragment)” was tested. Which Kd [1] did it give?
Answer: 271 nM

Question: And the Kd [2]?
Answer: 1200 nM
